Tests used:
Format in all cases: cell-based, Staphylococcus aureus
S. aureus = test: Growth inhibition and influence of iron
Experimental: (§1) The effect of LF or LFC at concentration sub-MICs alone or in combination with sub-MICs of antibiotics on bacterial growth rate of S. aureus, E. coli and K. pneumoniae was determined by monitoring bacterial cultures in MHB with the O.D.600 nm or by the count of colony forming unit per ml (cfu/ml). A volume of 2.5 ml of overnight cultures in MHB adjusted to 0.5-1 McFarland standard in saline were used to inoculate a final volume of 25 ml of fresh MHB containing the desired concentration of tested compounds. All flasks were then incubated at 37° C. with agitation (200 rpm) for 9 h. Aliquots were removed every hour to determine the culture turbidity using the spectrophotometer Philips PU 8800 (Pye Unican Ltd, Cambridge, UK). The combined antibiotic effect on bacterial growth was also determined using concentrations of LF in the presence of different concentrations of antibiotics. Briefly, a volume of 3 ml of fresh MHB containing desired concentration of drugs was adjusted to an optical density of 0.4 at 540 nm after an overnight culture. The culture was then incubated at 37° C with agitation (200 rpm). After incubation, aliquots were removed to determine the culture turbidity (OD540nm) or cfu/ml. To determine the influence of the level of iron on of the growth inhibition by the test compound, 5 μM of FeCl3 were added to the media.

[1] = test system: S. aureus strains ATCC 25923, SHY97-3906, −4242 and RFT-5; test: Bacterial growth in MHB; conditions: LF alone, sub-MIC (9.1, 36.6, 250 or 500 μg/ml); 4, 8 and 18-h; except for strain SHY97-3906
Experimental: as §1

S. aureus ATCC 25923 = test: Bacterial growth in MHB; conditions: LF alone, sub-MIC
Experimental: as §1

S. aureus PC-1 [2] = test: Bacterial growth in MHB; conditions: LF or LFC alone, sub-MIC
Experimental: as §1

[3] = test system: β-lactamase induction in S. aureus SHY97-4320; test: Induction of β-lactamase after LF pre-incubation (signal transduction); conditions: LF 1 mg/ml added 30 or 60 min before 8 μg/ml penicillin G, 4 h
Experimental: As the β-lactamase system is the best-known signal transduction system in S. aureus. We tested the ability of LF to inhibit signal transduction in S. aureus SHY97-4320 which is an inducible beta-lactamase producing strain. Bacterial cells were first exposed during 30 or 60 min to LF in broth and were further treated with 8 μg/ml of penicillin G for an additional 4 h. The cfu/ml were determined, cells aliquots were centrifuged and pellets were suspended in 10 mM HEPES buffer (pH 7.4) as mentioned above. Nitrocefin (100 μM) was added to 20 μl of cells in a final volume of 200 μl. Hydrolysis was measured at 486 nm on a Spectra Max 250 Microplate Spectrophotometer System of Molecular Device (Fisher Scientific, Ottawa, Canada). β-Lactamase activity was expressed as ΔO.D.486 nm/min and corrected for bacterial OD.

S. aureus PC-1 [4] = test: Cell morphology by transmission electron microscopy; conditions: exposure to LF or LFC
Experimental: Bacterial cells were grown overnight on MHA or MHB containing sub-MICs of penicillin G with or without LF or LFC. Microorganisms were prepared for transmission electron microscopy by fixation with glutaraldehyde followed by ferritin labelling. This method allows good- preservation of capsular material. Briefly, bacterial cells grown in the presence or absence of antibiotics were fixed in cacodylate buffer (0.1 M, pH 7.0) containing 5% (v/v) glutaraldehyde, for 2 h at 20° C. Fixed microorganims were suspended in cacodylate buffer and allowed to react with the polycationic ferritin (Sigma Chemicals, St-Louis, Mo.; final concentration 1.0 mg/ml) for 30 min at 20° C. The reaction was slowed down by 10-fold dilution with buffer, and the microorganisms were centrifuged and washed three times in cacodylate buffer. Bacterial cells were then immobilized in 4% (w/v) agar, washed 5 times in cacodylate buffer and post-fixed with 2% (w/v) osmium tetroxide for 2 h. […]
Bacterial cells of PC-1 (a constitutively high producing β-lactamase strain) were grown overnight in MHB containing 8 μg/ml of penicillin G, 16 μg/ml of LFC alone or in combination for 4-h at 37° C. with agitation at 150 rpm. Bacteria cell morphology was evaluated by transmission electron microscopy after fixation and ferritin labelling method as previously described.

B1: LF: bovine lactoferrin, 80-kDa iron-binding glycoprotein found in milk (protein, UniProt P24627 20-708, looked up)
Lactotransferrin: APRKNVRWCTISQPEWFKCRRWQWRMKKLGAPSITCVRRAFALECIRAIAEKKADAVTLDGGMVFEAGRDPYKLRPVAAEIYGTKESPQTHYYAVAVVKKGSNFQLDQLQGRKSCHTGLGRSAGWIIPMGILRPYLSWTESLEPLQGAVAKFFSASCVPCIDRQAYPNLCQLCKGEGENQCACSSREPYFGYSGAFKCLQDGAGDVAFVKETTVFENLPEKADRDQYELLCLNNSRAPVDAFKECHLAQVPSHAVVARSVDGKEDLIWKLLSKAQEKFGKNKSRSFQLFGSPPGQRDLLFKDSALGFLRIPSKVDSALYLGSRYLTTLKNLRETAEEVKARYTRVVWCAVGPEEQKKCQQWSQQSGQNVTCATASTTDDCIVLVLKGEADALNLDGGYIYTAGKCGLVPVLAENRKSSKHSSLDCVLRPTEGYLAVAVVKKANEGLTWNSLKDKKSCHTAVDRTAGWNIPMGLIVNQTGSCAFDEFFSQSCAPGADPKSRLCALCAGDDQGLDKCVPNSKEKYYGYTGAFRCLAEDVGDVAFVKNDTVWENTNGESTADWAKNLNREDFRLLCLDGTRKPVTEAQSCHLAVAPNHAVVSRSDRAAHVKQVLLHQQALFGKNGKNCPDKFCLFKSETKNLLFNDNTECLAKLGGRPTYEEYLGTEYVTAIANLKKCSTSPLLEACAFLTR
For B1, which “effect of addition of 5 μM of FeCl3 on LF growth inhibitory activity” value (S. aureus) is on record?
Its value is “did not affect”.

What about the growth inhibitory activity (S. aureus; bovine LF saturated to 16.2% of iron) of the same molecule?
Its growth inhibitory activity is “demonstrated a growth inhibitory activity”.

And the growth [1]?
The growth was “did not affect the growth”.

And the growth (S. aureus ATCC 25923)?
The growth was “delayed growth”.

What about the growth (S. aureus PC-1 [2]) of the same molecule?
The growth was “delayed growth”.

And the “induction of β-lactamase by penicillin G” value [3]?
Its value is “completely block induction of β-lactamase”.

What about the “shape and size of cells” value (S. aureus PC-1 [4]) of the same molecule?
The value was “affected the shape and the size”.
